Assay results as given in PMC10663500, “High-throughput analysis system of interaction kinetics for data-driven antibody design” (Scientific Reports, 2023).

Key:
[1] = target: T1, human programmed cell death protein 1 (hPD-1) C93S (aa 24-167) (Homo sapiens, UniProt Q15116, C93S); assay: SPR; Carterra LSA; Fab from the ammonium sulfate precipitate of the culture supernatant immobilised on a NiHC200M chip; hPD-1 (1-1024 nM) or mPD-1-Fc (4-1024 nM) as analyte, fourfold dilution series, no regeneration; HBS-EP pH 7.4, 25 °C; medians over the spots of a construct, KD = koff/kon; details: one partner purified
T1 construct: made as a fusion with a TEV site and human Fc; the Fc was cut off with TEV protease; source: Expi293F, purified (Protein A, TEV cleavage of Fc, SEC; monomer fractions); not shown: Fc (human), C-terminal, cleaved
T1 sequence (Q15116 24-167 C93S): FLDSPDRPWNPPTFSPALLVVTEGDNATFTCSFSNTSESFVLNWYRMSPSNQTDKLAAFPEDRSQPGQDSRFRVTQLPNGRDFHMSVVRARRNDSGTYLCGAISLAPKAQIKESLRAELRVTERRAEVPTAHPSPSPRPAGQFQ
How it was run: (§1)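 Fabs, ammonium sulfate-precipitated from Brevibacillus supernatants and redissolved in HBS-EP, were captured in duplicate on a NiHC200M chip on a Carterra LSA at 25 °C. Fourfold series of human PD-1 (1–1024 nM) or mouse PD-1-Fc (4–1024 nM) were run without regeneration, with association for 10 min and dissociation for 5 min. Rates were fitted with the kdka model, choosing the better of slow- or fast-dissociation settings, and unconfirmed binders were given kon 10^3 […] and koff 10^−2 s^−1. The dissociation constant KD is koff/kon based on per-construct medians.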

[2] = target: T2, mouse programmed cell death protein 1 Fc fusion protein (mPD-1-Fc), mPD-1 C60S (aa 25-167) (Mus musculus, UniProt Q02242, stabilised); assay: as above; details: one partner purified
T2 construct: not cleaved; source: Expi293F, purified (Protein A, SEC; dimeric fraction); not shown: Fc (human), C-terminal, kept
How it was run: as §1

B1: toripalimab Fab H.D31Y (Fab, V domains shown)
VH: QGQLVQSGAEVKKPGASVKVSCKASGYTFTYYEMHWVRQAPIHGLEWIGVIESETGGTAYNQKFKGRVTITADKSTSTAYMELSSLRSEDTAVYYCAREGITTVATTYYWYFDVWGQGTTVTVSS
VL: DVVMTQSPLSLPVTLGQPASISCRSSQSIVHSNGNTYLEWYLQKPGQSPQLLIYKVSNRFSGVPDRFSGSGSGTDFTLKISRVEAEDVGVYYCFQGSHVPLTFGQGTKLEIK
notes: heavy chain of Sm3 with this change; numbers count from the chain's first residue; as the light chain of Sm3; source: Brevibacillus, culture supernatant (ammonium sulfate precipitate); not shown: 6xHis, C-terminal, kept; 6xHN, C-terminal, kept
Kd [1]: < 0.349 nM
koff [1]: < 1e-05 s⁻¹
kon [1]: 28600 M⁻¹ s⁻¹
Kd [2]: 291 nM
koff [2]: 0.0133 s⁻¹
kon [2]: 45600 M⁻¹ s⁻¹

B2: toripalimab Fab H.N61A (Fab, V domains shown)
VH: QGQLVQSGAEVKKPGASVKVSCKASGYTFTDYEMHWVRQAPIHGLEWIGVIESETGGTAYAQKFKGRVTITADKSTSTAYMELSSLRSEDTAVYYCAREGITTVATTYYWYFDVWGQGTTVTVSS
VL: DVVMTQSPLSLPVTLGQPASISCRSSQSIVHSNGNTYLEWYLQKPGQSPQLLIYKVSNRFSGVPDRFSGSGSGTDFTLKISRVEAEDVGVYYCFQGSHVPLTFGQGTKLEIK
notes: as for B1
Kd [1]: < 0.355 nM
koff [1]: < 1e-05 s⁻¹
kon [1]: 28100 M⁻¹ s⁻¹
Kd [2]: 32 nM
koff [2]: 0.00141 s⁻¹
kon [2]: 44100 M⁻¹ s⁻¹

B3: toripalimab Fab H.N61Y (Fab, V domains shown)
VH: QGQLVQSGAEVKKPGASVKVSCKASGYTFTDYEMHWVRQAPIHGLEWIGVIESETGGTAYYQKFKGRVTITADKSTSTAYMELSSLRSEDTAVYYCAREGITTVATTYYWYFDVWGQGTTVTVSS
VL: DVVMTQSPLSLPVTLGQPASISCRSSQSIVHSNGNTYLEWYLQKPGQSPQLLIYKVSNRFSGVPDRFSGSGSGTDFTLKISRVEAEDVGVYYCFQGSHVPLTFGQGTKLEIK
notes: as for B1
Kd [1]: < 0.156 nM
koff [1]: < 1e-05 s⁻¹
kon [1]: 64200 M⁻¹ s⁻¹
Kd [2]: 147 nM
koff [2]: 0.00562 s⁻¹
kon [2]: 38100 M⁻¹ s⁻¹

B4: toripalimab Fab H.G56Y (Fab, V domains shown)
VH: QGQLVQSGAEVKKPGASVKVSCKASGYTFTDYEMHWVRQAPIHGLEWIGVIESETYGTAYNQKFKGRVTITADKSTSTAYMELSSLRSEDTAVYYCAREGITTVATTYYWYFDVWGQGTTVTVSS
VL: DVVMTQSPLSLPVTLGQPASISCRSSQSIVHSNGNTYLEWYLQKPGQSPQLLIYKVSNRFSGVPDRFSGSGSGTDFTLKISRVEAEDVGVYYCFQGSHVPLTFGQGTKLEIK
notes: as for B1
Kd [1]: < 1.7 nM
koff [1]: < 1e-05 s⁻¹
kon [1]: 5890 M⁻¹ s⁻¹
Kd [2]: 502 nM
koff [2]: 0.0174 s⁻¹
kon [2]: 34700 M⁻¹ s⁻¹

B5: toripalimab Fab H.G56A (Fab, V domains shown)
VH: QGQLVQSGAEVKKPGASVKVSCKASGYTFTDYEMHWVRQAPIHGLEWIGVIESETAGTAYNQKFKGRVTITADKSTSTAYMELSSLRSEDTAVYYCAREGITTVATTYYWYFDVWGQGTTVTVSS
VL: DVVMTQSPLSLPVTLGQPASISCRSSQSIVHSNGNTYLEWYLQKPGQSPQLLIYKVSNRFSGVPDRFSGSGSGTDFTLKISRVEAEDVGVYYCFQGSHVPLTFGQGTKLEIK
notes: as for B1
Kd [1]: < 1.46 nM
koff [1]: < 1e-05 s⁻¹
kon [1]: 6870 M⁻¹ s⁻¹
Kd [2]: 154 nM
koff [2]: 0.00466 s⁻¹
kon [2]: 30200 M⁻¹ s⁻¹

B6: toripalimab Fab H.G57Y (Fab, V domains shown)
VH: QGQLVQSGAEVKKPGASVKVSCKASGYTFTDYEMHWVRQAPIHGLEWIGVIESETGYTAYNQKFKGRVTITADKSTSTAYMELSSLRSEDTAVYYCAREGITTVATTYYWYFDVWGQGTTVTVSS
VL: DVVMTQSPLSLPVTLGQPASISCRSSQSIVHSNGNTYLEWYLQKPGQSPQLLIYKVSNRFSGVPDRFSGSGSGTDFTLKISRVEAEDVGVYYCFQGSHVPLTFGQGTKLEIK
notes: as for B1
Kd [1]: 3.35 nM
koff [1]: 0.000138 s⁻¹
kon [1]: 41100 M⁻¹ s⁻¹
Kd [2]: 90.3 nM
koff [2]: 0.00664 s⁻¹
kon [2]: 73500 M⁻¹ s⁻¹

B7: toripalimab Fab H.K63A (Fab, V domains shown)
VH: QGQLVQSGAEVKKPGASVKVSCKASGYTFTDYEMHWVRQAPIHGLEWIGVIESETGGTAYNQAFKGRVTITADKSTSTAYMELSSLRSEDTAVYYCAREGITTVATTYYWYFDVWGQGTTVTVSS
VL: DVVMTQSPLSLPVTLGQPASISCRSSQSIVHSNGNTYLEWYLQKPGQSPQLLIYKVSNRFSGVPDRFSGSGSGTDFTLKISRVEAEDVGVYYCFQGSHVPLTFGQGTKLEIK
notes: as for B1
Kd [1]: < 0.248 nM
koff [1]: < 1e-05 s⁻¹
kon [1]: 40300 M⁻¹ s⁻¹
Kd [2]: 71.3 nM
koff [2]: 0.00524 s⁻¹
kon [2]: 73600 M⁻¹ s⁻¹

B8: toripalimab Fab H.T58Y (Fab, V domains shown)
VH: QGQLVQSGAEVKKPGASVKVSCKASGYTFTDYEMHWVRQAPIHGLEWIGVIESETGGYAYNQKFKGRVTITADKSTSTAYMELSSLRSEDTAVYYCAREGITTVATTYYWYFDVWGQGTTVTVSS
VL: DVVMTQSPLSLPVTLGQPASISCRSSQSIVHSNGNTYLEWYLQKPGQSPQLLIYKVSNRFSGVPDRFSGSGSGTDFTLKISRVEAEDVGVYYCFQGSHVPLTFGQGTKLEIK
notes: as for B1
Kd [1]: 1.26 nM
koff [1]: 1.54e-05 s⁻¹
kon [1]: 12300 M⁻¹ s⁻¹
Kd [2]: 215 nM
koff [2]: 0.0107 s⁻¹
kon [2]: 49600 M⁻¹ s⁻¹
